Article PMC4980159 (Biochemistry, 2016)
Like-named read-outs stand apart in the source and are kept apart here.

How the values were obtained:
[1] = molecular target: CEACAM5 N-terminal domain (Homo sapiens) (UniProt P06731); details: cited from earlier work
Target sequence in this assay (P06731 35-144): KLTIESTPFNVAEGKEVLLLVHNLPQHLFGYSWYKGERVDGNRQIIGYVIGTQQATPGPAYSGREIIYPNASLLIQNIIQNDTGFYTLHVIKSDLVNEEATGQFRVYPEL

[2] = molecular target: CEACAM5 N-terminal domain (Homo sapiens) (UniProt P06731); details: cited from earlier work; remark: listed apart in the source
[3] = molecular target: Fibronectin (Homo sapiens) (UniProt P02751); details: cited from earlier work
[4] = molecular target: Fluorescently labeled NCCM1 H139C (human) (UniProt P13688); test: fluorescence polarisation
[5] = molecular target: Fluorescently labeled NCCM3 H139C (human) (UniProt P40198); test: fluorescence polarisation
[6] = molecular target: Recombinant OpaD reconstituted into liposomes (N. gonorrhoeae strain FA1090, UniProt Q04883 2-243); test: fluorescence polarisation

Fibronectin (Homo sapiens), sequence (P02751 32-2477): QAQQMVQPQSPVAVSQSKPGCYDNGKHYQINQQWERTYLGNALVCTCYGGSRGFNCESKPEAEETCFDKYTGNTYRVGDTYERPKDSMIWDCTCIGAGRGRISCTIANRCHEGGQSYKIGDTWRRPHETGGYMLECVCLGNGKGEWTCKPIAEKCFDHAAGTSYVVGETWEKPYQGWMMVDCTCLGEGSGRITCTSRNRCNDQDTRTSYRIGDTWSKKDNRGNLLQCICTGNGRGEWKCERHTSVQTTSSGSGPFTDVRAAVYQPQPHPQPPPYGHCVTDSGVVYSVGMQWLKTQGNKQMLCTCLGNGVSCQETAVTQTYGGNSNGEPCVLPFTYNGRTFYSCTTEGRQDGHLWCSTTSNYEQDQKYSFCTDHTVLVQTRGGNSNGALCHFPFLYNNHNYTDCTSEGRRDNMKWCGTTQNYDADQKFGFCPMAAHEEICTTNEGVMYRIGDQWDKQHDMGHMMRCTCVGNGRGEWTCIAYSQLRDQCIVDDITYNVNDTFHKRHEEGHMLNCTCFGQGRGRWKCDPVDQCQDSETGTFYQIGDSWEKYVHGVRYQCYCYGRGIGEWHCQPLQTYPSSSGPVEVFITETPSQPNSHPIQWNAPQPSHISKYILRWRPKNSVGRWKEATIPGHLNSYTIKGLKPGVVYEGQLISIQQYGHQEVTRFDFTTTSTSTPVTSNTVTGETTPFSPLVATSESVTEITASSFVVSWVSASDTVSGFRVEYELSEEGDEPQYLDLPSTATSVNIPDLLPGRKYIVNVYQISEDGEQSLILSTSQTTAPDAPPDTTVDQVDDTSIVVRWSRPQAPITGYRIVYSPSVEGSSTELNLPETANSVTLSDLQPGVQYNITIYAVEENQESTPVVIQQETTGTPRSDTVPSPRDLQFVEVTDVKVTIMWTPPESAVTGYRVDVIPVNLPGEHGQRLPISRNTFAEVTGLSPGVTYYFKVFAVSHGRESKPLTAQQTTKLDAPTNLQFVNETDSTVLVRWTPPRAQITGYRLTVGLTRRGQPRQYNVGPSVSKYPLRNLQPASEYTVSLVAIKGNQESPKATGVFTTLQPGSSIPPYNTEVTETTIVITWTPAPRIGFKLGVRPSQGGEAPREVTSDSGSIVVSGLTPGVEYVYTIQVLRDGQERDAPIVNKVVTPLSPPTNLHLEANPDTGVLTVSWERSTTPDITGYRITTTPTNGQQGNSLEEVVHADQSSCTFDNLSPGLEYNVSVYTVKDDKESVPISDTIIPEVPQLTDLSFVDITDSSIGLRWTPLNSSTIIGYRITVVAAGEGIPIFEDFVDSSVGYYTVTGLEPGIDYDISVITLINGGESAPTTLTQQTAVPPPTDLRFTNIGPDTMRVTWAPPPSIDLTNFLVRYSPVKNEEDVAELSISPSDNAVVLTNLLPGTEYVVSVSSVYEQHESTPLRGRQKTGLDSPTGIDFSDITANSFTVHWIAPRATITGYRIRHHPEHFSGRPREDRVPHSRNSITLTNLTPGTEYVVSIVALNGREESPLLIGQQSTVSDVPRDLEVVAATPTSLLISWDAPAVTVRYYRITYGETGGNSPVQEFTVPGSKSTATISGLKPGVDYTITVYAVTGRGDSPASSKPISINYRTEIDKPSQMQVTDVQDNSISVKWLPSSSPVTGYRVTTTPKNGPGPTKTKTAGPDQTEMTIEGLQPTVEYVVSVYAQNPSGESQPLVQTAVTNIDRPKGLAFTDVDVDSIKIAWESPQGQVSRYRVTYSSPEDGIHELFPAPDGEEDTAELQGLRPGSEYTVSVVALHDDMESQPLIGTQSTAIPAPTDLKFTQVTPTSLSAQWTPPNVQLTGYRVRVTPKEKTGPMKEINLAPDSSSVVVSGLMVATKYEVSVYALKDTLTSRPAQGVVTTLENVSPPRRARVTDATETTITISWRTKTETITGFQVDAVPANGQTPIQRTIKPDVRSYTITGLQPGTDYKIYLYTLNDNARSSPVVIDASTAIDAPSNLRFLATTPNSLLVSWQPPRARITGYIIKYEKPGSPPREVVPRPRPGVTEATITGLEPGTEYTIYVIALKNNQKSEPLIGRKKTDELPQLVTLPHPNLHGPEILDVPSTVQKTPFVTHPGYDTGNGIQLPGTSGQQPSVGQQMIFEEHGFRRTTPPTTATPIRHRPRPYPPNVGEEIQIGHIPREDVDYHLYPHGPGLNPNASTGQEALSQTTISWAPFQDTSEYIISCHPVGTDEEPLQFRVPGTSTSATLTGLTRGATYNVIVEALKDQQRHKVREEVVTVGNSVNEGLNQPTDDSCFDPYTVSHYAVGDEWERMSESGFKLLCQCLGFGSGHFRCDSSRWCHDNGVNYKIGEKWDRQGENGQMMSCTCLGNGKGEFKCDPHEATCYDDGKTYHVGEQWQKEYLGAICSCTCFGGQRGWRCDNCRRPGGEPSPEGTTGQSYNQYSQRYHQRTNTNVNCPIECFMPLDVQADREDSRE

For CEACAM5 A3 domain (from UniProt P06731), the Kd [1] is given as 18 nM.

For “CEACAM5 N-terminal domain (from UniProt P06731)”, the Kd [2] is listed as 100 nM and the Kd [3] is listed as 16 nM.

For “Recombinant Opa60 reconstituted into liposomes (natural protein)”, the Kd [4] was 1.6 nM and the Kd [5] was 4.3 nM.

B1: Fluorescently labeled NCCM1 H139C (domain or fragment, human, UniProt P13688-1 35-141, looked up)
chain: QLTTESMPFNVAEGKEVLLLVHNLPQQLFGYSWYKGERVDGNRQIVGYAIGTQQATPGPANSGRETIYPNASLLIQNVTQNDTGFYTLQVIKSDLVNEEATGQFCVY
modifications: AMS (4-acetamido-4'-maleimidylstilbene-2,2'-disulfonic acid) on the introduced cysteine (H139C)
For B1, the Kd [6] was 2.6 ± 1.3 nM.

B2: Fluorescently labeled NCCM3 H139C (domain or fragment, human)
chain: PGSGAKLTIESMPLSVAEGKEVLLLVHNLPQHLFGYSWYKGERVDGNSLIVGYVIGTQQATPGAAYSGRETIYTNASLLIQNVTQNDIGFYTLQVIKSDLVNEEATGQFCVYQ
modifications: AMS (4-acetamido-4'-maleimidylstilbene-2,2'-disulfonic acid) on the introduced cysteine (H139C)
In the case of B2, the Kd [6] is reported as 6.8 ± 2.2 nM.
